Test results taken from patent publication US20220025070A1 (Novartis, published 2022).
Changes are numbered by the printed parent chain.

B1: anti-NOV1401 Fab IDT1 (parental, first generation) (Fab, V domains shown)
VH: QVQLLESGGGLVQPGGSLRLSCAASGFTFSDYAMSWVRQAPGKGLEWVSVIDYSSSNTYYADSVKGRFTISRDNSKNTLYLQMNSLRAEDTAVYYCAREGYSYRSIRFDYWGQGTLVTVSS
VL: DIQMTQSPSSLSASVGDRVTITCRASQSISSNLNWYQQKPGKAPKLLIYAASNLQSGVPSRFSGSGSGTDFTLTISSLQPEDFATYYCLQFDHTPFTFGQGTKVEIKR
notes: also called parental Fab; parental antibody IDT1
B2: anti-NOV1401 Fab IDT1C, mammalian format (HC1 + LC1) (Fab, V domains shown)
VH: B1 VH with V50T, D52A, S54V, S55G, S56A, N57P, Y59H
VL: B1 VL
B3: anti-NOV1401 Fab IDT1B, E. coli format (Fab, V domains shown)
VH: B1 VH with Q1E, V50T, D52S, S54L, S55G, S56Q, N57E, T58K, Y59H
VL: B1 VL
B4: anti-NOV1401 Fab IDT1A, E. coli format (Fab, V domains shown)
VH: B1 VH with Q1E
VL: B1 VL with F91Y, D92Y, T94L, F96Y
B5: anti-NOV1401 Fab IDT1D (HC1 + LC2) (Fab, V domains shown)
VH: B1 VH with V50T, D52A, S54V, S55G, S56A, N57P, Y59H
VL: B1 VL with F91Y, D92Y, T94L, F96Y
notes: Cross-clone: heavy chain of IDT1C with light chain of IDT1A; expressed in 293 HEK cells; also called 1DT1D
B6: anti-NOV1401 Fab IDT1E (HC2 + LC2) (Fab, V domains shown)
VH: B1 VH with V50T, D52S, S54L, S55G, S56Q, N57E, T58K, Y59H
VL: B1 VL with F91Y, D92Y, T94L, F96Y
notes: Cross-clone: heavy chain of IDT1B with light chain of IDT1A; expressed in 293 HEK cells
B7: anti-FXI/FXIa antibody NOV1401 (antibody, human IgG1, lambda, V domains shown)
VH: QVQLLESGGGLVQPGGSLRLSCAASGFTFSTAAMSWVRQAPGKGLEWVSGISGSGSSTYYADSVKGRFTISRDNSKNTLYLQMNSLRAEDTAVYYCARELSYLYSGYYFDYWGQGTLVTVSS
VL: QSVLTQPPSASGTPGQRVTISCSGSSSNIGSNDVSWYQQLPGTAPKLLIYKNYNRPSGVPDRFSGSKSGTSASLAISGLQSEDEADYYCSAWDQRQFDVVFGGGTKLTVLG
notes: Captured through Fc in Octet, free in solution in SET (biotinylated NOV1401 used only on the detection plate), amine-coupled in SPR; also called anti-Factor XI antibody NOV1401; target antibody

Tests used:
[1] = target: B7; experiment: solution equilibrium titration (SET), constant Fab with titrated NOV1401, RT, 1:1 fit, average
Procedure: (§1) 14 serial 2-fold dilutions of NOV1401 (from 0.1 pM to 1 nM) were prepared in assay buffer (DPBS (Life Technologies) containing 0.5% BSA and 0.02% Tween-20), and a constant concentration of anti-NOV1401 Fab was added (10 pM, 20 pM or 40 pM). A volume of 60 μl/well of each NOV1401-anti-NOV1401 mix was dispensed in triplicates to a 384-well polypropylene microtiter plate (polypropylene MTP: Greiner, Cat. #781280). Assay buffer served as a negative control and a sample containing only anti-NOV1401 served as a positive control (Bmax). The plate was sealed and incubated overnight (o/n, at least 20 h) at room temperature (RT) on a shaker. A 384-well streptavidin (SA) plate from Life Technologies (Cat. #15505) was coated with 30 μl/well of Biotin-NOV1401 diluted in assay buffer for 2 h at RT on a shaker, then washed three times with wash buffer (PBS containing 0.05% Tween 20). After that 30 μl/well of the equilibrated NOV1401-anti-NOV1401 mix was transferred from the polypropylene MTP (Greiner) to the coated SA plate and incubated for 30 min at RT on a shaker. After an additional wash step, 30 μl/well anti-human Kappa LC-HRP detection antibody (BETHYL, Cat. #A80-115P; 0.05 μg/ml diluted in assay buffer) was added to each well and incubated for 60 min at RT on a shaker. The SA plate was washed, and 30 μl/well LumiGLO read buffer (KPL, Cat. #54-61-01; LumiGLO Peroxidase Chemiluminescent Substrate) was added and incubated for 1 min at RT. RLU signal was measured by the SPECTRAMAXM5 (Molecular Devices, Sunnyvale, Calif. USA).
(§2) All measurements were performed as triplicates and average RLU signals were calculated. Data were baseline-adjusted by subtracting the value for the lowest concentration from all data points and plotted against the corresponding NOV1401 concentration. The KD was determined by non-linear curve fitting using a 1:1 fit model as shown in Equation (according to Haenel et al., 2005, Anal Biochem. 339(1):182-4):
(§3) KD and Bₘₐₓ were set as variables to be fitted by GraphPad Prism 7.03.

[2] = target: B7; experiment: SPR (ProteOn XPR36), NOV1401 amine-coupled, Fab as analyte, 25 C, Langmuir 1:1
Procedure: SPR binding experiments were performed on a ProteOn XPR36 instrument (Bio-Rad Laboratories, Inc.) in PBS/T buffer (50 mM phosphate, 150 mM NaCl, pH 7.4, 0.05% v/v Tween-20) at 25° C. NOV1401 (‘Ligand’) was immobilized onto an activated ProteOn GLC sensor chip (Bio-Rad Laboratories, Inc.) using standard amine coupling procedures as described by the manufacturer. Briefly, NOV1401 was injected at a concentration of […] in 20 mM sodium acetate, pH 5.0 and at a flow rate of 30 μl/min for 10 min. Unreacted groups were blocked by injecting 1 M ethanolamine.
For kinetic studies anti-NOV1401 Fabs (‘Analytes’) were diluted in PBS/T buffer to generate a dilution series with concentrations ranging from 0.125-4 nM. Fabs were injected onto surfaces with immobilized NOV1401 at a flow rate of 100 μL/min and sensorgrams were recorded for association and dissociation times of 220 s and 1800 s, respectively. Blank surfaces were used for background corrections. There was no need to regenerate surfaces since the ProteOn protein interaction array system allows to run up to six binding experiments on an identical surface in parallel.
Data processing and analysis including kₒₙ, koff, and KD determination were performed with the ProteOn Managerrm software version 3.1.0.6. Sensorgrams were fitted by applying a Langmuir 1:1 binding model (Rmax set at global) and dissociation constants were calculated from kₒₙ and koff.

[3] = target: B7; experiment: solution equilibrium titration (SET), 1:1 fit, average KD printed in the panel
Procedure: as §1, with “A” for “14 serial 2-fold dilutions of NOV1401 (from 0.1 pM to 1 nM) were prepared in assay buffer (DPBS (Life Technologies) containing 0.5% BSA and 0.02% Tween-20), and a constant concentration of anti-NOV1401 Fab was added (10 pM, 20 pM or 40 pM). A”
as §2, §3

[4] = target: B7; experiment: cell-based or functional assay
[5] = target: B7; experiment: Octet bio-layer interferometry, NOV1401 captured on anti-human IgG Fc (AHC) sensors, Fab at 25-400 nM in solution
Procedure: Affinity assessments were performed via Bio-Layer Interferometry technology. Anti-Human IgG Fc Capture (AHC) biosensors (Fortebio, Ref. 18-5060) were used to capture NOV1401. […] Buffer (Fortebio, Ref. 18-5032) alone was used for background (0 nM) determination. Fab association and dissociation were each recorded by measuring the change in layer thickness (in nanometers, nm) with time for 800 s each, all under computer control.

[6] = target: B6; experiment: SET: NOV1401 titrated against a constant Fab concentration in solution, free Fab captured on a biotin-NOV1401 streptavidin plate and detected with anti-human kappa-HRP
Procedure: as §1, §3

[7] = target: B5; experiment: as above
Procedure: as §1, §3

[8] = target: B2; experiment: as above
Procedure: as §1, §3

Row | Binder | Kd [1] [pM] | kon [2] [M⁻¹ s⁻¹] | Kd [3] [pM] | aPTT reversal, NOV1401/anti-NOV1401 ratio (n/n) 1/3 [4] [%] | aPTT reversal, NOV1401/anti-NOV1401 ratio (n/n) 1/9 [4] [%] | aPTT reversal, NOV1401/anti-NOV1401 ratio (n/n) 1/30 [4] [%] | other results
1 | B1 | 110 | 550000 |  |  |  |  | Kd [2]: 440 pM; koff [2]: 0.00024 s⁻¹
2 | B2 | 9.6 | 250000 | 9.6 | 79 | 80 | 78 | 
3 | B3 |  |  |  |  |  |  | binding result [5]: binds
4 | B4 |  |  |  |  |  |  | binding result [5]: binds
5 | B5 |  | 440000 | 2.5 | 63 | 72 | 78 | 
6 | B6 | 2.5 | 690000 | 7 | 72 | 84 | 83 | 
7 | B7 |  |  |  |  |  |  | IC50 (read off the curve) [6]: ~10 pM; IC50 (read off the curve) [7]: ~20 pM; IC50 (read off the curve) [8]: 10 to 20 pM
